Assay results published in the RNAGym collection of RNA variant scans (doi:10.7554/elife.80360).

B1: CPEB3 Ribozyme (parent)
chain: GGGGGCCACAGCAGAAGCGUUCACGUCGCGGCCCCUGUCAGAUUCUGGUGAAUCUGCGAAUUCUGCUGU

Variants of: B1
Experiment: self-cleavage, relative activity (ratio to wild type); higher = more cleavage; co-transcriptional
Variant G5A U20G has a self-cleavage of 0.111. With G5A U20C the self-cleavage was 0.109. Variant G5A U46C has a self-cleavage of 0.945. With G5A G25A the self-cleavage was 0.114. In the case of G5A G25U, the self-cleavage is reported as 0.0968. For G5A G25C, the self-cleavage was 0.137. Variant G5C C9U has a self-cleavage of 0.412. For G5C C9G, the self-cleavage was 0.487. With G5C C9A the self-cleavage was 0.386. With G4C U67C the self-cleavage was 0.824. G4C U67A gave a self-cleavage of 0.902. Work on G4C U67G yielded a self-cleavage of 0.848. G4C U43A gave a self-cleavage of 0.251. Variant G5A G30U has a self-cleavage of 0.125. In the case of G5A A15C, the self-cleavage is reported as 0.263. Variant G5A A15U has a self-cleavage of 0.355. For G4U G47U, the self-cleavage was 0.873. G4U G47C gave a self-cleavage of 0.793. Work on G4U G47A yielded a self-cleavage of 0.804. In the case of G5A C33A, the self-cleavage is reported as 0.296. Work on G5A C33G yielded a self-cleavage of 0.136. G4U G14U gave a self-cleavage of 0.241. Work on G4U G14C yielded a self-cleavage of 0.205. Work on G4U C54A yielded a self-cleavage of 0.289. Work on G4U C54G yielded a self-cleavage of 0.21. Variant G4U C54U has a self-cleavage of 0.709. With G5A U69A the self-cleavage was 0.994. For G5A U69C, the self-cleavage was 1.05. G5A U69G showed a self-cleavage of 1.03. For G4U A16U, the self-cleavage was 0.235. G5A A8U showed a self-cleavage of 0.894. Variant G5A A8G has a self-cleavage of 0.725. G5A A8C gave a self-cleavage of 0.953. Work on G4U C9G yielded a self-cleavage of 0.974. G4U C9A gave a self-cleavage of 0.982. G4U C57U showed a self-cleavage of 0.211. For G4U C57G, the self-cleavage was 0.165. Work on G5C A8U yielded a self-cleavage of 0.156. For G5C A8G, the self-cleavage was 0.242. For G5C A8C, the self-cleavage was 0.199. Variant G4U U67A has a self-cleavage of 0.9. Work on G4U U67C yielded a self-cleavage of 0.946. G5A C12A gave a self-cleavage of 0.532. G5A C12G showed a self-cleavage of 0.488. For G5A U43G, the self-cleavage was 0.578. For G5A U43A, the self-cleavage was 0.721. Work on G5A U43C yielded a self-cleavage of 0.77. G4U A40U showed a self-cleavage of 0.313. G4U A40G showed a self-cleavage of 0.542. For G5A A10C, the self-cleavage was 0.914. G5A A10G gave a self-cleavage of 0.915. With G5A A10U the self-cleavage was 0.953. Variant G4U C35U has a self-cleavage of 0.128. Variant G4U C35G has a self-cleavage of 0.101. For G4U C35A, the self-cleavage was 0.114. G4U C29A showed a self-cleavage of 0.0776. Work on G5A G58U yielded a self-cleavage of 0.906. G5A G58C gave a self-cleavage of 0.758. Work on G5A G58A yielded a self-cleavage of 0.723. With G5A U26C the self-cleavage was 0.853. Work on G5A U26A yielded a self-cleavage of 0.498. With G5A U26G the self-cleavage was 0.611. G4U U46A showed a self-cleavage of 0.746. In the case of G4U U46C, the self-cleavage is reported as 0.751. Work on G4U U46G yielded a self-cleavage of 0.803. Variant G4U U69A has a self-cleavage of 0.952. In the case of G4U G56C, the self-cleavage is reported as 0.339. With G4U G56U the self-cleavage was 0.559. For G5C C27U, the self-cleavage was 0.138. Work on G4C U46C yielded a self-cleavage of 0.619. G5C C7A showed a self-cleavage of 0.684. For G5C C7G, the self-cleavage was 0.293. G4U C39A showed a self-cleavage of 0.322. In the case of G4U C22U, the self-cleavage is reported as 0.0611. Work on G4U C22A yielded a self-cleavage of 0.065. Work on G4U G11U yielded a self-cleavage of 0.492. In the case of G4U G11C, the self-cleavage is reported as 0.228. Work on G4U G11A yielded a self-cleavage of 0.571. G4U U55C gave a self-cleavage of 0.298. G4U U55G gave a self-cleavage of 0.203. In the case of G4U U55A, the self-cleavage is reported as 0.496. For G5A U49A, the self-cleavage was 0.926. G5A C6U showed a self-cleavage of 0.189. Variant G5A C6A has a self-cleavage of 0.103. G4U C12A showed a self-cleavage of 0.255. In the case of G4U C12U, the self-cleavage is reported as 0.819. G4U C12G showed a self-cleavage of 0.182. With G5A G47A the self-cleavage was 0.964. G5A G47C gave a self-cleavage of 0.914. For G4U G30C, the self-cleavage was 0.108. In the case of G4U G30U, the self-cleavage is reported as 0.103. Work on G4U U26G yielded a self-cleavage of 0.3. With G5A G68C the self-cleavage was 0.947. G5A G68A showed a self-cleavage of 0.976. Variant G5A G68U has a self-cleavage of 0.948. In the case of G4U C32U, the self-cleavage is reported as 0.436. In the case of G4U C32G, the self-cleavage is reported as 0.129. Work on G4U C32A yielded a self-cleavage of 0.135. Variant G5A G50A has a self-cleavage of 0.941. G5A G50C showed a self-cleavage of 0.902. Work on G5A A13C yielded a self-cleavage of 0.637. Work on G5A U67C yielded a self-cleavage of 0.963. G5A U67G gave a self-cleavage of 0.957. Variant G4U C18U has a self-cleavage of 0.257. Work on G4U C18G yielded a self-cleavage of 0.0879. G4U A59U gave a self-cleavage of 0.193. Variant G4U A59C has a self-cleavage of 0.146. Variant G5A U38A has a self-cleavage of 0.816. G5A U38G gave a self-cleavage of 0.129. In the case of G5A U38C, the self-cleavage is reported as 0.749. For G4U G28C, the self-cleavage was 0.0704. Work on G4U U36C yielded a self-cleavage of 0.651. G4U U36G gave a self-cleavage of 0.492. Variant G4U U36A has a self-cleavage of 0.122. In the case of G5A C54G, the self-cleavage is reported as 0.394. With G5A C54A the self-cleavage was 0.546. Work on G5A C54U yielded a self-cleavage of 0.893. Variant G4U C7U has a self-cleavage of 0.233. For G5A G17U, the self-cleavage was 0.152. G4U G17A gave a self-cleavage of 0.114. G4U G58C gave a self-cleavage of 0.457. Work on G4U G58A yielded a self-cleavage of 0.377. Work on G4U G48A yielded a self-cleavage of 0.856. For G4U G65A, the self-cleavage was 0.521. G5A U64G gave a self-cleavage of 0.729. Work on G5A U64C yielded a self-cleavage of 0.676. Work on G5A U64A yielded a self-cleavage of 0.71. G4U C63G gave a self-cleavage of 0.292. G4U U53A gave a self-cleavage of 0.412. Variant G4U U53G has a self-cleavage of 0.226. Work on G4U U53C yielded a self-cleavage of 0.323. With G4U U62C the self-cleavage was 0.369. In the case of G4U U62G, the self-cleavage is reported as 0.349. G4U G5U showed a self-cleavage of 0.0723. Work on G5A C18U yielded a self-cleavage of 0.483. G5A C18G showed a self-cleavage of 0.0833. G5A G31C showed a self-cleavage of 0.118. G5A G31U showed a self-cleavage of 0.221. G5A G31A showed a self-cleavage of 0.158. Work on G5A U61C yielded a self-cleavage of 0.299. In the case of G5A U61G, the self-cleavage is reported as 0.468. For G5A U61A, the self-cleavage was 0.351. For G5A A60G, the self-cleavage was 0.515. Work on G5A A60C yielded a self-cleavage of 0.251. Work on G5A A60U yielded a self-cleavage of 0.247. In the case of G4U A13U, the self-cleavage is reported as 0.383. Variant G4U A13C has a self-cleavage of 0.336. Variant G4U C66U has a self-cleavage of 0.771. In the case of G4U C66A, the self-cleavage is reported as 0.468. In the case of G5A C57U, the self-cleavage is reported as 0.304. With G5A C57A the self-cleavage was 0.224. For G5A C57G, the self-cleavage was 0.234. G5A G41U gave a self-cleavage of 0.488. In the case of G5A G41A, the self-cleavage is reported as 0.512. G5A G41C showed a self-cleavage of 0.359. With G5A G56U the self-cleavage was 0.772. G5A G56A showed a self-cleavage of 0.759. With G5A G56C the self-cleavage was 0.407. With G4U A42U the self-cleavage was 0.526. In the case of G4U A42G, the self-cleavage is reported as 0.655. G4C U64A gave a self-cleavage of 0.457. In the case of G4C U64C, the self-cleavage is reported as 0.426. Variant G5A G48A has a self-cleavage of 0.918. G4U U61C gave a self-cleavage of 0.174. Variant G4C U55C has a self-cleavage of 0.237. G4C U55A showed a self-cleavage of 0.261. In the case of G5C C22G, the self-cleavage is reported as 0.0735.
